Here are results for ten proteins from article PMC1278935, “Different Catalytic Mechanisms in Mammalian Selenocysteine- and Cysteine-Containing Methionine-R-Sulfoxide Reductases” (PLoS Biology, 2005).

Substrate in data set [1]: CN(C)c1ccc(N=Nc2ccc(S(=O)(=O)N[C@@H](CC[S@@+](C)[O-])C(=O)O)cc2)cc1
Nature of the data set: HPLC of dabsyl-Met, Lineweaver-Burk. It is filed as biochemical, Homo sapiens. The following applies: 20 mM DTT, 50 mM sodium phosphate pH 7.5, 50 mM NaCl, 37 °C, from E. coli. The text has this:
HPLC of dabsyl-Met, Lineweaver-Burk on MsrB3

Substrate in data set [2]: CN(C)c1ccc(N=Nc2ccc(S(=O)(=O)N[C@@H](CC[S@@+](C)[O-])C(=O)O)cc2)cc1
Description: HPLC of dabsyl-Met, Lineweaver-Burk. It is filed as biochemical, Mus musculus. The note with it: 20 mM DTT, 50 mM sodium phosphate pH 7.5, 50 mM NaCl, 37 °C. The source says:
HPLC of dabsyl-Met, Lineweaver-Burk on MsrB1 (Sec-containing MsrB1; Cys form MsrB1-Cys)

Positions count from the first letter of the chain named. In names and notes the source's numbering stands.

B1: MsrB3 (Homo sapiens; H77G) (protein)
chain: SGSCRDKKNCKVVFSQQELRKRLTPLQYHVTQEKGTESAFEGEYTGHKDPGIYKCVVCGTPLFKSETKFDSGSGWPSFHDVINSEAITFTDDFSYGMHRVETSCSQCGAHLGHIFDDGPRPTGKRYCINSAALSFTPADSSGTAEGGSGVASPAQADKAEL
notes: MsrB3A delta(1-31), residues 32-192, endoplasmic reticulum signal removed, C-terminal His tag (LEHHHHHH), E. coli BL21(DE3), monomer
Turning to B1, in data set [1] (MsrB1 numbering), the Km (usually the substrate concentration at which the rate is half of its maximum) was 1000 ± 200 µM and the kcat – broadly, the maximal rate divided by the concentration of active sites – turned out to be 0.0283 ± 0.005 s⁻¹.

B2: MsrB3 (Homo sapiens; I113E) (protein)
chain: B1 chain with G46H, I82E
notes: as for B1
As to B2, in data set [1] (MsrB1 numbering), the Michaelis-Menten constant (Km) was determined as 200 ± 50 µM and the kcat is 0.07 ± 0.0083 s⁻¹.

B3: MsrB3 (Homo sapiens; N160Y) (protein)
chain: B1 chain with G46H, N129Y
notes: as for B1
Take B3: in data set [1] (MsrB1 numbering), the Km was determined as 1200 ± 100 µM and the kcat was found to be 0.00033 ± 0.00017 s⁻¹.

B4: MsrB3 (Homo sapiens) (protein)
chain: B1 chain with G46H
notes: as for B1
With B4, in data set [1], the Km is 800 ± 50 µM and the kcat turned out to be 0.827 ± 0.07 s⁻¹.

B5: MsrB1 (Sec-containing MsrB1; Cys form MsrB1-Cys) (Mus musculus) (protein)
chain: MSFCSFFGGEVFQNHFEPGVYVCAKCSYELFSSHSKYAHSSPWPAFTETIHPDSVTKCPEKNRPEALKVSCGKCGNGLGHEFLNDGPKRGQSRFUIFSSSLKFVPKGKEAAASQGH
notes: full length, monomer; Sec forms: natural SECIS element, C-terminal His tag (five His added to own C-terminal His), from NIH 3T3 cells; C-terminally tagged form of similar activity also made
Regarding B5, in data set [2] (Sec form from NIH 3T3), the Km amounted to 500 ± 100 µM and the kcat was determined as 0.223 ± 0.0383 s⁻¹.

B6: MsrB1 (Sec-containing MsrB1; Cys form MsrB1-Cys) (Mus musculus; U95C) (protein)
chain: B5 chain with U95C
notes: as for B5
Turning to B6, in data set [2] (MsrB1-Cys from E. coli), the Km amounted to 1300 ± 200 µM and the kcat worked out at 0.00183 ± 0.0005 s⁻¹.

B7: MsrB1 (Sec-containing MsrB1; Cys form MsrB1-Cys) (Mus musculus; F97N/G77H/U95C) (protein)
chain: B5 chain with G77H, U95C, F97N
notes: as for B5
B7: in data set [2] (MsrB1-Cys from E. coli), the Michaelis-Menten constant (Km) amounted to 13200 ± 2400 µM and the kcat is 0.023 ± 0.005 s⁻¹.

B8: MsrB1 (Sec-containing MsrB1; Cys form MsrB1-Cys) (Mus musculus; F97N/G77H) (protein)
chain: B5 chain with G77H, F97N
notes: as for B5
Regarding B8, in data set [2] (Sec form from NIH 3T3), the Km was 6400 ± 2100 µM and the kcat came to 0.04 ± 0.0083 s⁻¹.

B9: MsrB1 (Sec-containing MsrB1; Cys form MsrB1-Cys) (Mus musculus; F97N) (protein)
chain: B5 chain with F97N
notes: as for B5
For the protein B9, in data set [2] (Sec form from NIH 3T3), the Km stood at 4300 ± 1600 µM and the kcat stood at 0.01 ± 0.0033 s⁻¹.

B10: MsrB1 (Sec-containing MsrB1; Cys form MsrB1-Cys) (Mus musculus; G77H) (protein)
chain: B5 chain with G77H
notes: as for B5
Turning to B10, in data set [2] (Sec form from NIH 3T3), the Km was 800 ± 50 µM and the kcat is 0.0433 ± 0.013 s⁻¹.
